Data: article PMC12604781 (PLOS Pathogens, 2025)

Biological target: SUMO-PRV peptide AB (pseudorabies virus (PRV))
Experiment: ITC

pcGAS^CT (C-terminus, catalytic domain of porcine cGAS) (domain or fragment)
Kd: 2920 nM
